Literature values as cited in paper PMC11854596.

Target: 53BP1 BRCT (Homo sapiens) (UniProt Q12888)
Sequence (Q12888 1714-1972): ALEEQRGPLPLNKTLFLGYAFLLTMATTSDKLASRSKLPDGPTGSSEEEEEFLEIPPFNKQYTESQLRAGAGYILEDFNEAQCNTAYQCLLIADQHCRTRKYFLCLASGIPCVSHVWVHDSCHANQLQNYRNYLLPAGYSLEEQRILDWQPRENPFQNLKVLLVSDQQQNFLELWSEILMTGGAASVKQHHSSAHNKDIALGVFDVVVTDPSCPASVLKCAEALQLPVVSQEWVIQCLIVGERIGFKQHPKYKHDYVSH

γH2AX (from UniProt P16104)
Kd: 2.7 µM
